Source: publication PMC9457330 (Proceedings of the National Academy of Sciences of the …, 2022)

Target: the molecule itself
Test: native gel or EMSA

B1: SLC25A11 (endogenous, mouse) (natural protein, UniProt Q9CR62 1-314, looked up)
chain: MAATASPGAGRMDGKPRTSPKSVKFLFGGLAGMGATVFVQPLDLVKNRMQLSGEGAKTREYKTSFHALTSILKTEGLKGIYTGLSAGLLRQATYTTTRLGIYTVLFERLTGADGTPPGFLLKALIGMTAGATGAFVGTPAEVALIRMTADGRLPADQRRGYKNVFNALVRIAREEGVPTLWRGCIPTMARAVVVNAAQLASYSQSKQFLLDSGYFSDNILCHFCASMISGLVTTAASMPVDIVKTRIQNMRMIDGKPEYKNGLDVLLKVVRYEGFFSLWKGFTPYYARLGPHTVLTFIFLEQMNKAYKRLFLSG
- stoichiometry N: 2
